2 molecules from patent US20250277013A1 (published 2025) can be followed below.

Experiment [1] deals with T1, Neuroligin-4, X-linked (NLGN4X) peptide on HLA-A*02:01 (human).
T1 peptide: NLDTLMTYV
Kind of experiment: multimer staining.

In experiment [2] the target is T2, Protein Tyrosine Phosphatase Receptor Type Z1 (PTPRZ1) peptide on HLA-A*02:01 (human).
T2 peptide: MIWEHNVEV
Kind of experiment: multimer staining.

B1: NLGN4X(131-139)-specific TCR (TCR, V domains shown)
Valpha: RKEVEQDPGPFNVPEGATVAFNCTYSNSASQSFFWYRQDCRKEPKLLMSVYSSGNEDGRFTAQLNRASQYISLLIRDSKLSDSATYLCVVTDSGNTGKLIFGQGTTLQVKP
Vbeta: GAVVSQHPSWVICKSGTSVKIECRSLDFQATTMFWYRQFPKQSLMLMATSNEGSKATYEQGVEKDKFLINHASLTLSTLTVTSAHPEDSSFYICSARVDYNEQFFGPGTRLTVL
B1: the binding result in experiment [1] is reported as “recognises”.

B2: PTPRZ1(1814-1822)-specific TCR (TCR, V domains shown)
Valpha: AQSVTQLDSQVPVFEEAPVELRCNYSSSVSVYLFWYVQYPNQGLQLLLKYLSGSTLVKGINGFEAEFNKSQTSFHLRKPSVHISDTAEYFCAVSDRGAGNMLTFGGGTRLMVKP
Vbeta: GAGVSQSPSNKVTEKGKDVELRCDPISGHTALYWYRQSLGQGLEFLIYFQGNSAPDKSGLPSDRFSAERTGGSVSTLTIQRTQQEDSAVYLCASSLGLAGGLAGELFFGEGSRLTVL
For B2, the binding result in experiment [2] is reported as “recognises”.
